For assay [1], the target named is T1, human PDL1 on cells (human, UniProt Q9NZQ7 19-290). Briefly: cell-based or functional assay.
The target of assay [2] is T1, human PDL1 on cells. Briefly: FACS, Raji cells overexpressing human PDL1, anti-human Fc-PE, MFI. The procedure:
Approximately 100,000 Raji cells overexpressing human PDL1 were washed with wash buffer and incubated with 100 ul serial dilution of PDL1/SIRPα bispecific protein for 30 minutes on ice. Cells were then washed twice with wash buffer and incubated with 100 ul of anti-human Fc-PE for 30 minutes on ice. Cells were then washed twice with wash buffer and analyzed on a FACS Canto II analyzer (BD Biosciences). […] The bispecific antibodies ES019-025, ES019-026 bound Raji/hPDL1 similar to anti-PDL1 monoclonal antibody C71 whereas ES019-020, ES019-024 bound Raji/hPDL1 to a lesser extent relative to anti-PDL1, C71.
A general note: Flow cytometry measures light scatter and fluorescence of single cells or particles in a stream.

The target of assay [3] is human PDL1 protein (Octet assay) (human, UniProt Q9NZQ7 19-238). Put plainly: Octet; antibody on sensor, PDL1 protein in solution. The procedure: The Anti-PDL1/SIRPα bispecific protein were characterized for binding affinity against human PDL1 using Octet assay (ForeBio) according to manufacturer's manual, separately. Briefly, the antibodies were coupled on sensors and then the sensors were dipped into PDL1 protein gradients (start at 200 nM, with 2-fold dilution and totally 8 doses). Their binding responses were measured in real-time and results were fit globally.
Chain of human PDL1 protein (Octet assay) (Q9NZQ7 19-238 limits assumed): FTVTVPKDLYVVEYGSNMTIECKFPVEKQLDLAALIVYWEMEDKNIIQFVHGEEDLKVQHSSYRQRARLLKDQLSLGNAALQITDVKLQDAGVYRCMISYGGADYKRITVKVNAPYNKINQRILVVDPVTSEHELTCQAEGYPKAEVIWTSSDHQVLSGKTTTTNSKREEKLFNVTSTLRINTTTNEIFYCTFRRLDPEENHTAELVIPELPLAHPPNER

In assay [4] the target is T2, human SIRPα v2 on CHOK1 cells (human, UniProt P78324 31-504).
T2 construct: whole, on cells; also called CHOK1-hSIRPα v2; cell surface human SIRPα v2
T2 sequence (P78324 other isoform, or with tags, fused parts or gaps limits assumed): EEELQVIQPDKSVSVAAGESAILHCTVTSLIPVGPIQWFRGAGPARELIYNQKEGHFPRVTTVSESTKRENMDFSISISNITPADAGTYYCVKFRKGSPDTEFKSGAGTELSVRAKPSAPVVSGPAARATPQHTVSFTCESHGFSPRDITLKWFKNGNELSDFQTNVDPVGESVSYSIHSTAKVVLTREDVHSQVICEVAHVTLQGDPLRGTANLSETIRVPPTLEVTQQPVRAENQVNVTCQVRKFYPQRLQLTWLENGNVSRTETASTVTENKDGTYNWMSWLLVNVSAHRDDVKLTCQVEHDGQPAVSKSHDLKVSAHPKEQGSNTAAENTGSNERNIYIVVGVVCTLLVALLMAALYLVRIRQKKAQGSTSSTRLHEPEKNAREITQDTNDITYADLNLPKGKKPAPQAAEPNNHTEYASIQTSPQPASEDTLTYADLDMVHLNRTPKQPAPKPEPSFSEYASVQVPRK
Briefly: FACS, CHOK1 cells stably expressing human SIRPα v2. From the text: (§1) Binding activity of the purified chimeric antibodies against human SIRPα variants was detected by FACS assay using CHOK1 cells or 293F cells stably expressing human SIRPα v1 and CHOK1 cells stably expressing human SIRPα v2. […] EC₅₀ and top signal calculated using GraphPad Prism9.0.

Assay [5] has as its target T3, mFc tagged human SIRPα v1 ECD recombinant protein (human, UniProt P78324 31-373).
T3 construct: extracellular domain; not shown: mouse Fc tag
Briefly: competitive ELISA; row antibody in excess in solution, coated mAb hu1H9G4. The method, then: (§2) Competitive ELISA assay was used for epitope binning of purified chimeric antibodies. Briefly excessive competitor antibody and mFc tagged human SIRPα v1 ECD recombinant protein were co-incubated with ELISA microplate coated antibody. After washing, HRP labeled anti-mouse Fc 2nd antibody (Sigma) was added and incubated at 37° C. for 1 hour. Then, 100 μl/well of TMB solution (Biotechnology) was added. After incubation for 15 minutes at room temperature, the reaction was stopped by the addition of 50 μl of 1N HCl. OD 450 nm was read. Competition ratio was calculated. The antibodies that can compete each other for binding to SIRPα may have related binding epitopes.
(ELISA stands for enzyme-linked immunosorbent assay.)

For assay [6], the target named is Full length human SIRPα v1 with beta-gal fragment (ED) at its C-terminal, in K562 cells (human, UniProt P78324 31-504). Put plainly: cell-based or functional assay.
Chain of Full length human SIRPα v1 with beta-gal fragment (ED) at its C-terminal, in K562 cells (P78324 31-504): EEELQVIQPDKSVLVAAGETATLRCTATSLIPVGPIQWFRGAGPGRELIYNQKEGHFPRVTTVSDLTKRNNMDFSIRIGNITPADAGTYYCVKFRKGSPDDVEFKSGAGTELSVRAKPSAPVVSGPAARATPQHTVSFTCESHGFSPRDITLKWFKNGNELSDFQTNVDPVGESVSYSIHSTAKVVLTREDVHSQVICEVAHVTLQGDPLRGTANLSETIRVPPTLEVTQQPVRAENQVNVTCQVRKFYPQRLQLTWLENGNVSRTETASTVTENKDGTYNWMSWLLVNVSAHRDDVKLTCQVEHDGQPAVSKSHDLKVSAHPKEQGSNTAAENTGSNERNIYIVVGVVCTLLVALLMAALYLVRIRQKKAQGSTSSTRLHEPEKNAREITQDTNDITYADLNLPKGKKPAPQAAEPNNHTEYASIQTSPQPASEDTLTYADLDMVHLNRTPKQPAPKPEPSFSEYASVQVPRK
In assay [7] the target is T4, human SIRPα v1 ECD recombinant protein (human, UniProt P78324 31-373).
T4 construct: extracellular domain; Coated on the ELISA plate
T4 sequence (P78324 31-373): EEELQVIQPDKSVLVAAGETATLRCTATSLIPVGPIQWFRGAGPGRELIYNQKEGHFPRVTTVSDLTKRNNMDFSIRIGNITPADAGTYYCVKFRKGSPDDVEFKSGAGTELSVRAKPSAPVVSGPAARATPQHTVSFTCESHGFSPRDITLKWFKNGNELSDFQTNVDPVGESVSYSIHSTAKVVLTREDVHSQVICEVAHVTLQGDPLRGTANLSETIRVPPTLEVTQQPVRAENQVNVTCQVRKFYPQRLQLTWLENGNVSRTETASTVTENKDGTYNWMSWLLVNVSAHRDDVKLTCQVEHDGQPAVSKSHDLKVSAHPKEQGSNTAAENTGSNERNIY
Briefly: competitive ELISA, plate-coated human SIRPα v1 ECD; blocked ligand: mFc tagged human CD47 ECD. The method, then: (§3) Competitive ELISA assay was used to determine whether the purified chimeric antibodies can block CD47 and SIRPα interaction. Briefly, antibody and mFc tagged human CD47 ECD recombinant protein were co-incubated with ELISA microplate coated human SIRPα v1 ECD or human SIRPα v2 ECD recombinant protein. The concentration of soluble ECD of CD47 is 25 nM, and the concentration of soluble ECD of SIRPα is 20 nM. After washing, HRP labeled anti-mouse Fc 2nd antibody (Sigma) was added and incubated at 37° C. for 1 hour. Then, 100 μl/well of TMB solution (Biotechnology) was added. After incubation for 15 minutes at room temperature, the reaction was stopped by the addition of 50 μl of 1N HCl. OD 450 nm was read. Blocking ratio was determined by blockade of human SIRPα ECD recombinant protein binding to ELISA microplate coated human CD47 ECD recombinant protein. All antibodies as tested can block interaction between human CD47 and different human SIRPα variants.

Assay [8] deals with T3, mFc tagged human SIRPα v1 ECD …. Briefly: competitive ELISA; row antibody in excess in solution, coated mAb 042c. The procedure: as §2
Assay [9] concerns the target T5, human SIRPα v2 ECD recombinant protein (human).
T5 construct: extracellular domain; Coated on the ELISA plate
Briefly: competitive ELISA, plate-coated human SIRPα v2 ECD; blocked ligand: mFc tagged human CD47 ECD. The procedure:
as §3

Assay [10] addresses T3, mFc tagged human SIRPα v1 ECD …. Put plainly: competitive ELISA; row antibody in excess in solution, coated mAb 025c. The procedure: as §2
Assay [11] deals with T6, human SIRPα v1 on CHOK1 cells (human, UniProt P78324 31-504).
T6 construct: whole, on cells; also called CHOK1-hSIRPα v1; cell surface human SIRPα v1
T6 sequence (P78324 31-504): as the sequence (P78324 31-504) above
Briefly: FACS, CHOK1 cells stably expressing human SIRPα v1.
From the text: as §1

The target in assay [12] is T4, human SIRPα v1 ECD recombinant protein. Put plainly: competitive ELISA, plate-coated human SIRPα v1 ECD; blocked ligand: mFc tagged human CD47 ECD. The method, then:
as §3, with “ECD” for “ECD or human SIRPα v2 ECD”, “protein.” for “protein. The concentration of soluble ECD of CD47 is 25 nM, and the concentration of soluble ECD of SIRPα is 20 nM.”, “protein.” for “protein. All antibodies as tested can block interaction between human CD47 and different human SIRPα variants.”
This is another data set of the same source.

T1 sequence (Q9NZQ7 19-290): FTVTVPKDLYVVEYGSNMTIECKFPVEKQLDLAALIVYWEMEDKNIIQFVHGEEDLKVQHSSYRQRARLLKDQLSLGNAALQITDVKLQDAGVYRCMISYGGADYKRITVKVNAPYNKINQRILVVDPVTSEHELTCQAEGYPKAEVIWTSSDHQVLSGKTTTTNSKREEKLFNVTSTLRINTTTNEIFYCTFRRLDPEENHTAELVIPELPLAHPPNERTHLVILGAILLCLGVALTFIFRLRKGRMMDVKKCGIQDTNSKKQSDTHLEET
T3 sequence (P78324 31-373): as the sequence (P78324 31-373) above

B1: Anti-PDL1 antibody C71 (antibody, V domains shown)
VH: EVQVVESGGGLVQSGGSLKLSCAGSGFTESAGFMVWHRQVPGKERELVALIATPSGSTNYADSVKGRFTISRDNGKNTVYLQMNSLKPEDTAVYYCNIRGYWGQGTLVTVSS
notes: Heavy chain antibody (single domain variable region); also called Anti-PDL1, C71
B1: the EC50 (read off the curve) (in general, the concentration needed to bring the measured effect to its halfway point) with human PDL1 on cells [1] was about 2 nM. Further, the “EC50 (read off the curve)” value in the assay with human PDL1 on cells [2] is about 0.2 nM. In [3], the Kd (usually the concentration at which binding is half-saturated) amounted to 5.31 nM; the koff (usually the first-order rate constant of dissociation) was found to be 0.00501 s⁻¹; the kon – broadly, the second-order rate constant of association – came out at 942000 M⁻¹ s⁻¹.

B2: Anti-PDL1/SIRPα bispecific antibody ES019-024 (bispecific antibody, not shown: a dimerising Fc or GST)
light: QIVLTQSPAIMSASPGEKVTLTCSASSSVSSSYLYWYQQKPGSSPKLWIYSTSNLASGVPARFSGSGSGTSYSLTISSMEAEDAASYFCHQWSSYPYTFGGGTKLEIK
heavy (part 1 of 2): EVQLQQSGAELVKPGASVKLSCTASGFNIKDYYMHWVKQRTEQGLEWIGRIDPEDGETKYAPKFQGKATITADTSSNTAYLQLSSLTSEDTAVYYCDRGLAYWGQGTLVTVSA
heavy (part 2 of 2): B1 VH
With B2, the “EC50 (read off the curve)” value with human PDL1 on cells [1] was about 2 nM. Besides, in the assay with human PDL1 on cells [2], the “EC50 (read off the curve)” value was about 0.6 nM. In [3], this molecule displayed a Kd of 6.56 nM, a koff of 0.00603 s⁻¹ and a kon of 920000 M⁻¹ s⁻¹.

B3: Anti-PDL1/SIRPα bispecific antibody ES019-020 (bispecific antibody, not shown: small tags and cut ends; a dimerising Fc or GST)
light (part 1 of 2): B2 light
light (part 2 of 2): B1 VH
heavy: B2 heavy (part 1 of 2)
For the molecule B3, the “EC50 (read off the curve)” value in the assay with human PDL1 on cells [1] is about 3 nM. In the assay with human PDL1 on cells [2], the “EC50 (read off the curve)” value is about 0.6 nM. Besides, in assay [3], the affinity, expressed as Kd, was 5.54 nM; the koff was 0.00509 s⁻¹; the kon was found to be 918000 M⁻¹ s⁻¹.

B4: Anti-SIRPα antibody C73 (antibody, human IgG4, V domains shown)
VH: QIQLVQSGPELKKPGETVKISCKASGYTFTTYGMSWVKQAPGKGLKWMVWINTYSGVPTYADDFKGRFAFSLETSASTSYLQINNLKNEDTATYFCARDPHYYGSSPAWFVYWGQGTLVTVSA
VL: DIVMTQSQKFMSTTIGDRVSITCEASQIVGIAVAWYQQKPGQSPKLLIYSASNRYTGVPDRFTGSGSGTDFTLTISNMQSEDLANYFCQQYSAYPFTFGSGTKLEVK
notes: Mouse variable regions; also called 073c; 073C
Regarding B4, the values for the EC50 in assay [4] and in assay [11] were 2.12 nM and 1.5 nM, respectively. Moreover, the “TOP MFI” value was 47300 MFI in assay [4] and 67800 MFI in assay [11]. In addition, the “% Competition” value worked out at 37.7% in [5], 93.6% in [8] and 9.1% in assay [10]. Besides, the “IC50 (SHP-1 recruitment blocking)” value in assay [6] amounted to 5.66 nM. The “TOP blocking (SHP-1 recruitment)” value in assay [6] turned out to be 51.2%. Further, the IC50 (commonly the midpoint of a concentration-inhibition curve) came to 2.74 nM in assay [7] and 4.92 nM in assay [9]. The figures for the TOP blocking in assay [7] and in [9] were 95.1% and 82.8%, respectively.

B5: Anti-SIRPα antibody C35 (antibody, V domains shown)
VH: QIQLVQSGPELRKPGETVKISCKASGYSFTNYAMNWVKQAPGKVLKWMGFINTYTGEPTYADDFKGRFAFSLETSASTAYLQINNLKNEDTATYFCTRTRGYYDFDGGAFDYWGQGTSLTVSS
VL: DIVMTQSQKFMSTSIGDRVSVTCKASQNVGTHLAWYQQKPGQSPKALIFSASYRYIGVPDRFTGSGSGTDFTLTITNVQSEDLAEYFCQQYNTYPLTFGAGTKLELK
notes: Tested as purified chimeric antibody; also called 035
With B5, the “IC50 (read off the curve)” value in assay [12] was about 2 nM.
